Km and IC50 data for 2 molecules are collected here from PMC6535546, “Novel Carbapenemases FLC-1 and IMI-2 Encoded by an Enterobacter cloacae Complex Isolated from Food Products” (Antimicrobial Agents and Chemotherapy, 2019).

Data set [1] relates to CO/N=C(\C(=O)N[C@@H]1C(=O)N2C(C(=O)O)=C(COC(C)=O)CS[C@H]12)c1csc(N)n1. Put plainly: cells, lysate or membranes. It is filed as biochemical, Enterobacter cloacae. Particulars: PBS, 0.01% Triton X-100, pH 7.4, 23°C, cytoplasmic fraction of E. coli LMG194 producing FLC-1.
Data set [2] concerns CC1(C)S[C@@H]2[C@H](NC(=O)[C@H](N)c3ccccc3)C(=O)N2[C@H]1C(=O)O. Put plainly: cells, lysate or membranes. In kind it is biochemical, Enterobacter cloacae. Conditions: PBS, 0.01% Triton X-100, pH 7.4, 23°C, cytoplasmic fraction of E. coli LMG194 producing FLC-1.
Data set [3] relates to C[C@@H](O)[C@H]1C(=O)N2C(C(=O)O)=C(S[C@@H]3CN[C@H](C(=O)Nc4cccc(C(=O)O)c4)C3)[C@H](C)[C@H]12. Put plainly: cells, lysate or membranes. In kind it is biochemical, Enterobacter cloacae. Particulars: PBS, 0.01% Triton X-100, pH 7.4, 23°C, cytoplasmic fraction of E. coli LMG194 producing FLC-1.
In data set [4] the test system is C[C@@H](O)[C@H]1C(=O)N2C(C(=O)O)=C(SCCN=CN)C[C@H]12. Put plainly: cells, lysate or membranes. It is filed as biochemical, Enterobacter cloacae. Conditions: PBS, 0.01% Triton X-100, pH 7.4, 23°C, cytoplasmic fraction of E. coli LMG194 producing FLC-1.
The subject of data set [5] is C[C@@H](O)[C@H]1C(=O)N2C(C(=O)O)=C(S[C@@H]3CN[C@H](C(=O)N(C)C)C3)[C@H](C)[C@H]12. Put plainly: cells, lysate or membranes. It is filed as biochemical, Enterobacter cloacae. Particulars: PBS, 0.01% Triton X-100, pH 7.4, 23°C, cytoplasmic fraction of E. coli LMG194 producing FLC-1.
Data set [6] has as its target T1, FLC-1 (FRI-like carbapenemase-1) (Enterobacter cloacae, UniProt A0A2I5JVQ1).
T1 construct: gene bla; plasmid p3442-FLC-1 gene cloned in pBAD-FLC, expressed in E. coli LMG194; unpurified soluble (cytoplasmic) fraction; about 33 kDa
Put plainly: nitrocefin hydrolysis inhibition. It is filed as biochemical. As for the experimental part:
nitrocefin hydrolysis inhibition on FLC-1 (FRI-like carbapenemase-1) | the inhibition of FLC-1 enzymatic activity by clavulanic acid was tested

T1 sequence (A0A2I5JVQ1 entry or part of it): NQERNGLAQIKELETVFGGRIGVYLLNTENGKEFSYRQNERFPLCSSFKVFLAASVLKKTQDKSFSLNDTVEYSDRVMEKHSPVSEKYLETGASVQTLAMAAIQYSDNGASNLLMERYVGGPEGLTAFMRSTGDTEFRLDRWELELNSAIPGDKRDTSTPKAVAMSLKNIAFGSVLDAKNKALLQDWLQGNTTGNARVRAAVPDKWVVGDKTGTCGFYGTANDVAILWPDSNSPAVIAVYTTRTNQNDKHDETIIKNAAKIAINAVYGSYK

Turning to “FLC-1 (FRI-like carbapenemase-1) (Enterobacter cloacae)”, the Km (usually the substrate concentration at which the rate is half of its maximum) was 377.1 ± 110.6 µM in data set [1]; 1,649 ± 174.2 μM in data set [2]; 29.6 ± 11.7 µM in data set [3]; 177.2 ± 12.5 µM in data set [4]; 32.4 ± 9.3 µM in data set [5].

Turning to `O=C(O)[C@H]1/C(=C/CO)O[C@@H]2CC(=O)N21` [clavulanic acid], half-maximal inhibition in data set [6] (IC50) required 1970 ± 90 nM.
